In US20140087991A1, “PEPTIDE PRODRUGS” (The Johns Hopkins University, priority 2006, published 2014) one finds Occurences and Percentage data, which are given here for 31 substances.

For this assay, the target named is T1, FAP (Homo sapiens, UniProt Q12884).
T1 construct: the extracellular domain of FAP was cloned with a His-6 tag; made in house
T1 sequence (Q12884 26-760 limits assumed): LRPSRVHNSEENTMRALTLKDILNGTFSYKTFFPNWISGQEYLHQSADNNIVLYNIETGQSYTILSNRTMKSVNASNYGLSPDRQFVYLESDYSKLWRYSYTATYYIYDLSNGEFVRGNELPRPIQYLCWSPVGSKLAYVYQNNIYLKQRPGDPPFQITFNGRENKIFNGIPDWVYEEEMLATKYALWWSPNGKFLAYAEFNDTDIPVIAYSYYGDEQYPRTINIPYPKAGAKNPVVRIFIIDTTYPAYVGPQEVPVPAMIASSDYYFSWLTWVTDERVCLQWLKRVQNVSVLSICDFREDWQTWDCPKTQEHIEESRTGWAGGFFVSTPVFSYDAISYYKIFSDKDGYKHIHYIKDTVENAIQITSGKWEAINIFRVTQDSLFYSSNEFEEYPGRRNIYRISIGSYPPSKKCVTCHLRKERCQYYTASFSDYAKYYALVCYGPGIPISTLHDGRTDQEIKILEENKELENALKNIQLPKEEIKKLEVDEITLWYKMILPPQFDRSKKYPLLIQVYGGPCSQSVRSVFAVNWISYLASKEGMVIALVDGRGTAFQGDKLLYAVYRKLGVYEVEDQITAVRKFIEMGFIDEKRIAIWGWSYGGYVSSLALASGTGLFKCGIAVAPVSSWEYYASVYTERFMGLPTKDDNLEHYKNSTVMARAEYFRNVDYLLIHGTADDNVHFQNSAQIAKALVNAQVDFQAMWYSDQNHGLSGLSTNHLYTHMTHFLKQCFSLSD
As to the kind of experiment: LC-MS/MS cleavage map of FAP digest of 100 kDa recombinant human gelatin. The conditions noted are these: 100 kDa gelatin digest; for Percentage: share of all occurrences. Format: biochemical. The method, then: Human collagen I (Becton Dickinson, Franklin Lakes, N.J.) and recombinant human gelatins of 100 KDa and 8.5 KDa (Fibrogen, San Francisco, Calif.) were dissolved in reaction buffer to a final concentration of 100-300 μg/ml. 0.5-1 μg of FAP was added per 100 μgs of protein substrate. Digestion was done for 4-6 hrs at 37° C. As a positive control trypsin digestion was used. As a negative control, protein solutions were incubated either with BSA or buffer only. Peptide fragments of a size <30 KDa were purified using 30 KDa Microcon spin filter (Millipore, Billerica, Mass.).
Peptides obtained from FAP/gelatin digests were dried using a speedvac (Eppendorf), resuspended in LC/MS loading buffer (3% ACN, 0.1% formic acid), and analyzed using nano-flow LC/MS/MS on an Agilent 1100 series nano-LC system (Agilent) coupled to an LCQ Duo ion trap mass spectrometer (ThermoFinnigan). Peptides were pre-concentrated on a 5 mm Zorbax C18 trap column (Agilent) and then eluted onto a 100×0.075 mm custom-packed Biobasic C18 (ThermoElectron) reversed phase capillary column connected to a laser-pulled electrospray ionization emitter tip (New Objective) at a flowrate of 300 nl/min Peptides were eluted the nanospray source of the LCQ (Proxeon, Denmark) using the following gradient: 0% B at 0 min, 5% B at 8 min, 45% B at 50 min, 90% B at 55 min, 90% B at 60 min (B=0.1% formic acid in acetonitrile) at a spray voltage of 2.5 kV. The LCQ was operated in data-dependent mode using the Xcalibur software (ThermoFinnigan) in which every MS scan (400-1800 m/z) was followed by MS/MS scans (400-1800 m/z) on the 3 most intense ions using an isolation window of ±1.5 Da. Ions selected for MS/MS fragmentation were dynamically excluded for 30 s.
MS/MS data were searched against a collagen FASTA database using the SEQUEST search algorithm built into the Bioworks Browser (ThermoFinnigan) allowing for the variable modification of Methionine oxidation. Peptides were initially filtered in a charge dependent manner using an XCorr filter of 1.5, 2, and 2.5 for singly, doubly, and triply charged peptides. All MS/MS spectra used to identify peptides were manually inspected for validation of y and b-ion series. To quantify the relative abundance of each identified peptide we compared the ion current for each of the observed peptide parent ions from the MS spectra. The contribution of each parent ion to the total ion current was extracted and integrated over the peptide elution peak.
To resolve each particular mass fragment a Liquid Chromatograpy (LC) and Tandem mass spectroscopy (MS-MS) [LC-MS-MS] method was developed. Using this method, peptide fragments from FAP digests of the 8.5 kDa and 100 kDa recombinant gelatin were time-resolved by nano reverse phase LC (FIGS. 12 and 14) and then sequenced using an ion trap mass spectrometer operating in MS/MS mode. Initial methodological issues were worked out using the 8.5 kDa fragment before analyzing the entire 100 kDa protein. MS/MS spectra were searched against the 8.5 kDa and 100 kDa gelatin sequences using the SEQUEST algorithm with no cleavage specificity. Most of the identified cleavage sites in both sized gelatins occurred after Proline. However, FAP cleavage sites in these gelatins were not restricted to Proline alone. FAP was also found to cleave after Ala (e.g. A/A, A/G, A/P, A/R), Asp (e.g. D/G, D/T), Gly (e.g. G/A, G/E, G/L, G/Q, G/P, G/V), Glu (i.e., E/P), Lys (i.e., K/A, K/G), Ser (e.g. S/P) and Val (e.g. V/G).
To identify the most preferentially cleaved sites, we relatively quantified the abundance of each of the identified peptides by integrating the ion current generated by each peptide throughout the chromatogram. After identification of a peptide from a MS/MS spectrum, we extracted the ion current for the parent mass of the ion from the total MS ion chromatogram using a 1.5 Da tolerance window, and then integrated under the peak (FIGS. 12 and 14). […]

In the case of “G.PSGEPGKQGPSGASGERGPPGP.M: FAP cleavage fragment, 100 kDa recombinant human gelatin”, the Occurences was found to be 1 and the Percentage came out at 0.48.
The matching figures for “G.PPGPAGPAGPPGP.I: FAP cleavage fragment, 100 kDa recombinant human gelatin”: 1 and 0.48.
The matching figures for “G.PPGADGQPGAKGEPGDAGAKGDAGPPGP.A: FAP cleavage fragment, 100 kDa recombinant human gelatin”: 2 and 0.95.
As to “P.QGVRGEPGPPGP.A: FAP cleavage fragment, 100 kDa recombinant human gelatin”, the Occurences is 3 and the Percentage is given as 1.43.
Consider “P.AGPPGAPGAPGAPGPVGP.A: FAP cleavage fragment, 100 kDa recombinant human gelatin”, for which the Occurences is reported as 2 and the Percentage is 0.95.
Taken in the same sequence, the figures for “P.AGFAGPPGADGQPGAKGEPGDAGAKGDAGPPGP.A: FAP cleavage fragment, 100 kDa recombinant human gelatin” were 8 and 3.81.
Taken in the same sequence, the figures for “P.GPSGNAGPPGPP.G: FAP cleavage fragment, 100 kDa recombinant human gelatin” were 1 and 0.48.
Take “P.IGPPGPAGAPGDKGESGP.S: FAP cleavage fragment, 100 kDa recombinant human gelatin”: the Occurences was 6 and the Percentage was found to be 2.86.
In the case of “P.AGRPGEVGPPGPPGP.A: FAP cleavage fragment, 100 kDa recombinant human gelatin”, the Occurences was determined as 11 and the Percentage amounted to 5.24.
On to “G.PPGPAGAPGDKGESGP.S: FAP cleavage fragment, 100 kDa recombinant human gelatin”, for which the Occurences was found to be 3 and the Percentage is 1.43.
Regarding “G.PPGAPGAPGAPGPVGPAGKSGDRGETGP.A: FAP cleavage fragment, 100 kDa recombinant human gelatin”, the Occurences stood at 7 and the Percentage came out at 3.33.
In the case of “P.AGPKGEPGSPGENGAPG.Q: FAP cleavage fragment, 100 kDa recombinant human gelatin”, the Occurences is listed as 1 and the Percentage amounted to 0.48.
As to “A.AGRVGPPGP.S: FAP cleavage fragment, 100 kDa recombinant human gelatin”, the Occurences came to 2 and the Percentage was determined as 0.95.
The matching figures for “P.AGNPGADGQPGAKGANGAPGIAGAPGFPGARGP.S: FAP cleavage fragment, 100 kDa recombinant human gelatin”: 4 and 1.90.
In the case of “D.GRPGPPGPPGARGQAG.V: FAP cleavage fragment, 100 kDa recombinant human gelatin”, the Occurences was 2 and the Percentage stood at 0.95.
The matching figures for “P.AGEKGSPGADGPAGAPGTPGP.Q: FAP cleavage fragment, 100 kDa recombinant human gelatin”: 7 and 3.33.
The matching figures for “P.GGPPGPKGNSGEPGAPGSKGD.T: FAP cleavage fragment, 100 kDa recombinant human gelatin”: 1 and 0.48.
Taken in the same sequence, the figures for “P.SGEPGKQGPSGASGERGPPGP.M: FAP cleavage fragment, 100 kDa recombinant human gelatin” were 4 and 1.90.
In the case of “P.TGARGAPGDRGEPGPPGP.A: FAP cleavage fragment, 100 kDa recombinant human gelatin”, the Occurences came to 13 and the Percentage was 6.19.
Taken in the same sequence, the figures for “P.QGFQGPPGEPGEPGASGP.M: FAP cleavage fragment, 100 kDa recombinant human gelatin” were 2 and 0.95.
Consider “P.VGVQGPPGP.A: FAP cleavage fragment, 100 kDa recombinant human gelatin”, for which the Occurences is 3 and the Percentage is reported as 1.43.
Taken in the same sequence, the figures for “P.AGPPGAPGAPGAPGP.V: FAP cleavage fragment, 100 kDa recombinant human gelatin” were 8 and 3.81.
The matching figures for “A.PGDKGESGP.S: FAP cleavage fragment, 100 kDa recombinant human gelatin”: 2 and 0.95.
Taken in the same sequence, the figures for “A.PGPVGPAGKSGDRGETGP.A: FAP cleavage fragment, 100 kDa recombinant human gelatin” were 1 and 0.48.
Turning to “A.GPAGPPGP.I: FAP cleavage fragment, 100 kDa recombinant human gelatin”, the Occurences amounted to 1 and the Percentage was 0.48.
Consider “P.VGPPGPPGPP.G: FAP cleavage fragment, 100 kDa recombinant human gelatin”, for which the Occurences turned out to be 3 and the Percentage was 1.43.
Taken in the same sequence, the figures for “P.KGAAGEPGKAGERGVPGPPGAVGPAGKDGEAGAQGPPGP.A: FAP cleavage fragment, 100 kDa recombinant human gelatin” were 1 and 0.48.
On to “V.GPPGPPGPP.G: FAP cleavage fragment, 100 kDa recombinant human gelatin”, for which the Occurences came to 2 and the Percentage is recorded as 0.95.
Taken in the same sequence, the figures for “A.PGAPGPVGPAGKSGDRGETGP.A: FAP cleavage fragment, 100 kDa recombinant human gelatin” were 2 and 0.95.
Taken in the same sequence, the figures for “P.RGPPGSAGAPGKDGLNGLPGP.I: FAP cleavage fragment, 100 kDa recombinant human gelatin” were 14 and 6.67.
Taken in the same sequence, the figures for “P.PGPAGAPGDKGESGP.S: FAP cleavage fragment, 100 kDa recombinant human gelatin” were 2 and 0.95.
